The record followed here is PMC2602806.

Like-named read-outs stand apart in the source and are kept apart here.

Common to all, as to assay: X-ray crystallography
Data set [1] concerns the target T1, VP1 RNA-dependent RNA polymerase (cVP1) (Simian rotavirus A SA11 (group A; …, UniProt O37061 1-1088).
T1 sequence: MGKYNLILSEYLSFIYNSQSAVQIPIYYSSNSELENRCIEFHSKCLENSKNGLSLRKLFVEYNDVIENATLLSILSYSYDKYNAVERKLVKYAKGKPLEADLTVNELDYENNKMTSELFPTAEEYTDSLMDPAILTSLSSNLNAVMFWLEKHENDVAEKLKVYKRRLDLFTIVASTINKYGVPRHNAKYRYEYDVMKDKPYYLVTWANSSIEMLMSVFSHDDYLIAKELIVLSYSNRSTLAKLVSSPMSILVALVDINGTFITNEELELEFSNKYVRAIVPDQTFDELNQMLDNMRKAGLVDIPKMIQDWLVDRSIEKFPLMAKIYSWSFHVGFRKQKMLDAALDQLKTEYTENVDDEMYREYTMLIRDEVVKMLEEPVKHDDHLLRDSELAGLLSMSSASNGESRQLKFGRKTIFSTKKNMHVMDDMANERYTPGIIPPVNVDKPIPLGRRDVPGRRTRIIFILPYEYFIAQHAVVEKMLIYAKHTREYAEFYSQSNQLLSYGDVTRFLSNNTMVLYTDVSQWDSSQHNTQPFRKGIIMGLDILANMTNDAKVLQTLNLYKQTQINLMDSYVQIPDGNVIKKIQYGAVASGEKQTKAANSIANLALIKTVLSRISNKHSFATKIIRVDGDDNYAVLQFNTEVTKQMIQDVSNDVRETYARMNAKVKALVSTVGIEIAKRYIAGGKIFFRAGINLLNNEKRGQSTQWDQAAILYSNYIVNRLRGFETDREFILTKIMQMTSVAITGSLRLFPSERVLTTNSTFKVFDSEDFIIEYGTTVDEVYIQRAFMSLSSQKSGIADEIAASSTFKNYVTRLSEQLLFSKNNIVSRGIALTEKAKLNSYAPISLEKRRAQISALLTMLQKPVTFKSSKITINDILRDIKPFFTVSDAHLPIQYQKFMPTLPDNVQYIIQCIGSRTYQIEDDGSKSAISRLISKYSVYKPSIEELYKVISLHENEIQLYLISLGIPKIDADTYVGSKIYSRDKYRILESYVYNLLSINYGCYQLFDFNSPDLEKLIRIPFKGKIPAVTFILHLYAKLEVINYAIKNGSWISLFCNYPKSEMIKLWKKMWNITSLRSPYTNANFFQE

For data set [2], the target named is T1, VP1 RNA-dependent RNA polymerase (cVP1). The source holds these as a separate data set.
Data set [3] has the same target. The source holds these as a separate data set.
For data set [4] the target is unchanged. This is another data set of the same source.
Data set [5] shares this target. This is another data set of the same source.

With GGCUUU (ssRNA) [5'CS+], the binding result in data set [1] is reported as “binds”.
On to UGUGACC (ssRNA) [3'CS+ wild type], for which the binding result in data set [2] is on record as “binds”.
Turning to AAAAGCC (ssRNA) [3'CS-], in data set [3], the binding result is listed as “binds”.
For the molecule UGUGCC (ssRNA) [3'CS+ A3-deletion], the binding result in data set [4] is “binds”.
For UGUGAACC (ssRNA) [3'CS+ A-insertion], the binding result in data set [5] was “binds”.
